Test results published in patent publication US20130337528A1.

Molecular target: goat IgG (goat)
Assay: binding capacity used to set the particle load for goat serum; method not stated
Settings: scale: mg IgG per 5 g wet weight polymer particles

IgG binding capacity: > 220
Substance: PhaC-(GB1)3 polymer particles (PHB polymer particles displaying (GB1)3, from plasmid pET-14b PhaC-(GB1)3) (from UniProt P23608 1-589; P06654 228-282; P06654 228-282; P06654 228-282)
